This test addresses T1, human origin recognition complex hORC1-5 (human, UniProt Q13415 1-861; Q13416 1-577; Q9UBD5 1-711; O43929 1-436; O43913 1-435).
T1 construct: human origin recognition complex subunit 1 (hORC1); human origin recognition complex subunit 2 (hORC2); human origin recognition complex subunit 3 (hORC3); human origin recognition complex subunit 4 (hORC4); human origin recognition complex subunit 5 (hORC5); The Strep tag on hORC1 was kept for the pull-down; also called Strep-hORC1-5; hORC1-5WT; source: S. cerevisiae YC658, galactose-induced, …
Description: cryo-EM structure; hOCCM from a low-salt washed pre-RC reaction with ATPγS, eluted from the DNA beads with DNaseI; 6.09 Å. To be noted: both partners purified.

Consider one molecule from article PMC11711466, “Reconstitution of human DNA licensing and the structural and functional analysis of key intermediates” (Nature Communications, 2024).

B1: human MCM5 (natural protein, UniProt P33992 1-734, looked up)
chain: MSGFDDPGIFYSDSFGGDAQADEGQARKSQLQRRFKEFLRQYRVGTDRTGFTFKYRDELKRHYNLGEYWIEVEMEDLASFDEDLADYLYKQPAEHLQLLEEAAKEVADEVTRPRPSGEEVLQDIQVMLKSDASPSSIRSLKSDMMSHLVKIPGIIIAASAVRAKATRISIQCRSCRNTLTNIAMRPGLEGYALPRKCNTDQAGRPKCPLDPYFIMPDKCKCVDFQTLKLQELPDAVPHGEMPRHMQLYCDRYLCDKVVPGNRVTIMGIYSIKKFGLTTSRGRDRVGVGIRSSYIRVLGIQVDTDGSGRSFAGAVSPQEEEEFRRLAALPNVYEVISKSIAPSIFGGTDMKKAIACLLFGGSRKRLPDGLTRRGDINLLMLGDPGTAKSQLLKFVEKCSPIGVYTSGKGSSAAGLTASVMRDPSSRNFIMEGGAMVLADGGVVCIDEFDKMREDDRVAIHEAMEQQTISIAKAGITTTLNSRCSVLAAANSVFGRWDETKGEDNIDFMPTILSRFDMIFIVKDEHNEERDVMLAKHVITLHVSALTQTQAVEGEIDLAKLKKFIAYCRVKCGPRLSAEAAEKLKNRYIIMRSGARQHERDSDRRSSIPITVRQLEAIVRIAEALSKMKLQPFATEADVEEALRLFQVSTLDAALSGTLSGVEGFTSQEDQEMLSRIEKQLKRRFAIGSQVSEHSIIKDFTKQKYPEHAIHKVLQLMLRRGEIQHRMQRKVLYRLK
notes: Subunit of m6; also called hMCM5; source: HEK293-F, co-expressed hMCM2-7; in lysate (co-purification) and purified as hMCM2-7 (Ni-NTA, StrepTrapXT)
On to B1, for which the binding result was “binds”.
